From patent publication US20210011017A1

Key:
[1] = biological target: streptavidin (NEB, Cat #A00160) (UniProt P22629); experiment: ELISA, streptavidin well without peptide, secondary antibody only
[2] = biological target: recombinant BoHV-1 gE CT-His polypeptide (Bovine herpesvirus type 1) (UniProt Q08101); experiment: ELISA on coated gE CT-His, secondary antibody only (negative control)
[3] = biological target: recombinant BoHV-1 gE CT-His polypeptide (Bovine herpesvirus type 1) (UniProt Q08101); experiment: competitive ELISA on gE CT-His; serum, then HRP-MAb 2H8F3 (competitor); negative control reference

UniProt P22629, sequence (P22629 37-163 limits assumed): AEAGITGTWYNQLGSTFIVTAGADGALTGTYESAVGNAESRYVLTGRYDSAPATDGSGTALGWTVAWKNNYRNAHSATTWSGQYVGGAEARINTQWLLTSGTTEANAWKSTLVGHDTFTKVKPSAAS

| Substance | O.D. 450 nm [1] | O.D. 450 nm [2] | % Inhibition [3] | S/N Ratio [3] |
| --- | --- | --- | --- | --- |
| goat anti-mouse IgG [HRP] secondary antibody | 0.055 O.D. 450 nm | 0.057 O.D. 450 nm | – | – |
| inactivated, non-infected fetal calf serum (Atlas biologicals), negative control | – | – | 0% | 1 |
